In patent US5985833A, “Thrombin inhibitor” (Wisconsin Alumni Research Foundation, priority 1996, dated 1999):
“Also recorded” adds a separate entry of the source. Where a SMILES comes first, the peptide text is derived from it. Where no end group is shown, it is not given here. [ ]: non-standard residue; d: D form. sY = N[C@@H](Cc1ccc(OS(=O)(=O)O)cc1)C(=O)O

Tests used:
thrombin [1] = target: T1, thrombin (Homo sapiens, UniProt P00734); test: Peptide inhibition of 125I-PPACK-thrombin binding to peak 1 fibrin clot; conditions: for IC50 / inhibition of thrombin binding to peak 1 fibrin (in words): sulfated peptides; for IC50 for inhibition of thrombin binding to peak 1 fibrin (in words): non-sulfated γ' peptides containing 416 T→V and 420 S→A substitutions, FIG. 8
T1 construct: PPACK-thrombin was prepared by adding a five-fold molar excess of PPACK (Calbiochem, San Diego, Calif.) to α-thrombin; purchased Enzyme Research Laboratories, Inc., South Bend, Ind
Protocol: To determine the capacity of the peptides to inhibit thrombin binding, a 200 μl clot containing fibrin (0.5 nmoles) and ^125 I-PPACK-thrombin (0.1 nmoles) in 0.05M HEPES, 0.10M NaCl buffer, pH 7.4, and 0.01% (w/v) polyethylene glycol 8000 was formed in the presence of varying concentrations of peptide. The amount of thrombin bound to the clot was determined by counting the ^125 I radioactivity in a gamma counter. […] For most studies, peak 1 fibrin was used to assess the inhibitory capacity of the peptides. Similar qualitative thrombin-binding results were obtained using peak 2 fibrin (FIG. 6), but higher levels of peptide were needed to inhibit binding since this molecule contains the high affinity thrombin-binding site.

thrombin [2] = target: T1, thrombin; test: Peptide inhibition of 125I-PPACK-thrombin binding to peak 2 fibrin clot; conditions: FIG. 6
thrombin [3] = conditions: cited from earlier work

Compound | IC50 for inhibition of thrombin binding to peak 1 fibrin (in words) (thrombin [1]) | IC50 / inhibition of thrombin binding to peak 1 fibrin (in words) (thrombin [1]; FIG. 7) | further results
E H P A E T E F E S L Y P E D D L (EHPAETEFESLYPEDDL) [γ' 411-427/418F, tyrosine at 418 substituted with phenylalanine] | – | increase in IC50 compared with the doubly tyrosine-sulfated peptide; also recorded: lower IC50 than non-sulfated γ' A408-427 | –
AVRPEHPAETEYESLYPEDDL (AVRPEHPAETEYESLYPEDDL) [sulfated γ' A408-427] | – | similar | IC50 (thrombin [2]; peak 2 fibrin, tyrosine-sulfated peptides): 14 µM; inhibitory effect on thrombin binding to peak 2 fibrin (in words) (thrombin [2]; sulfated versus non-sulfated peptide): greater inhibitory effect
AEVEYEALYPEDDL [γ' 414-427 (416V/420A), A E V E Y E A L Y P E D D L] | no significant increases in IC50; also recorded: lowest IC50 | – | –
fibrinogen | – | – | Km (thrombin [3]; fibrinogen peptides or fibrinogen itself, read-out: Km estimated from peptide A release): 6 to 11 µM; Kd (thrombin [3]; substrate site, read-out: Kd derived from similar kinetic studies): 1.3 to 2.6 µM
CC(C)[C@H](NC(=O)[C@H](CCC(=O)O)NC(=O)[C@H](C)NC(=O)[C@@H]1CCCN1C(=O)[C@H](Cc1c[nH]cn1)NC(=O)[C@H](CCC(=O)O)NC(=O)[C@@H]1CCCN1)C(=O)N[C@@H](CCC(=O)O)C(=O)N[C@@H](Cc1ccc(OS(=O)(=O)O)cc1)C(=O)O [γ' 410-418(416V), P E H P A E V E Y] (H-PEHPAEVE[sY]-OH) | – | neither the amino-terminal γ' 410-418(416V) nor the carboxy-terminalγ' 419-427(420A) segment of this peptide had any significant inhibition of thrombin binding | –
CC(C)C[C@H](NC(=O)[C@H](CC(=O)O)NC(=O)[C@H](CC(=O)O)NC(=O)[C@H](CCC(=O)O)NC(=O)[C@@H]1CCCN1C(=O)[C@H](Cc1ccc(OS(=O)(=O)O)cc1)NC(=O)[C@H](CC(C)C)NC(=O)[C@H](C)NC(=O)[C@@H](N)CCC(=O)O)C(=O)O [γ' 419-427(420A), E A L Y P E D D L] (H-EAL[sY]PEDDL-OH) | – | nor the carboxy-terminalγ' 419-427(420A) segment of this peptide had any significant inhibition of thrombin binding | –
E H P A E T E Y E S L Y P E D D L (EHPAETEYESLYPEDDL) [sulfated γ' 411-427, doubly tyrosine-sulfated native γ' peptide] | – | Even greater inhibitory effects | IC50 / inhibition of thrombin binding to peak 1 fibrin (in words) (thrombin [1]; FIG. 7, listed as γ' 411-472): similar

More lines, main results first:

IC50 for inhibition of thrombin binding to peak 1 fibrin (in words) (thrombin [1]) | Compound | IC50 / inhibition of thrombin binding to peak 1 fibrin (in words) (thrombin [1]; FIG. 7) | further results
no significant increases in IC50 | VRPEHPAEVEYEALYPEDDL [γ' 408-427 (416V/420A), VRPEHPAEVEYEALYPEDDL] | – | –
no significant increases in IC50 | PEHPAEVEYEALYPEDDL [γ' 410-427 (416V/420A)] | – | –
no significant increases in IC50 | EHPAEVEYEALYPEDDL [γ' 411-427 (416V/420A), E H P A E V E Y E A L Y P E D D L] | – | –
